Measurements: article PMC8646600 (Advanced Science, 2021)

Experiments:
[1] = target: SARS-CoV-2 RBD titrated over immobilised Fabs (construct not stated) (SARS-CoV-2 (ancestral, Wuhan-Hu-1 …, UniProt P0DTC2)); test: BLI; conditions: both partners purified
[2] = target: T1, full-length SARS-CoV spike expressed on cells (SARS-CoV, strain , UniProt P59594); test: flow cytometry on cells; conditions: one partner purified
T1 construct: source: HEK293T, transiently transfected, on cells

[3] = target: T2, SARS-CoV-2 spike RBD (S-RBD), hFc tag removed by thrombin digestion, biotinylated (SARS-CoV-2, UniProt P0DTC2); test: BLI; conditions: both partners purified
[4] = target: T2, SARS-CoV-2 spike RBD (S-RBD), hFc tag …; test: ELISA; conditions: both partners purified

B1: S-E6 Fab (Fab, V domains shown)
VH: QVTLRESGPGLVKPSETLSLTCAVSGGSLSSVNYYWSWIRQHPGKGLEWIGYIYYSGSTNYNPSLKSRVTMSLDTSKNQFSLKLSSVTAADTAVYYCATPGAIMGALHIWGQGTLVTVSS
VL: QAVLTQPSSASSTPGQRVIISCSGSSSNIGSNTVSWYQQVPGAAPKLLIYFDYRRPSGVPDRFSGTRSGTSASLGISGLQSEDEADYYCAAWDDSLSAWVFGRGTKLTVL
Kd [1]: 11.4 nM

B2: S-E6 full-length human IgG4e1(S228P) antibody (antibody, V domains shown)
VH: B1 VH
VL: B1 VL
notes: also called S-E6 IgG; source: HEK293F, secreted; clarified culture supernatant, and purified (Mabselect)
binding result [2]: no binding

B3: S-B8 Fab (Fab, V domains shown)
VH: QVQLVQSGGGLIQPGGSLRLSCAASGFTVSLSHMNWVRQAPGKGLEWVSITYGDGNSDYADSVKGRFTISRDNSKNTLYLQMNSLRAEDTAVYYCAREYYYGMDVWGQGTTVTVSS
VL: not shown
Kd [1]: 15.4 nM

B4: S-B8 full-length human IgG4e1(S228P) antibody (antibody, V domains shown)
VH: B3 VH
VL: not shown
notes: also called S-B8 IgG; source: HEK293F, secreted; clarified culture supernatant, and purified (Mabselect)
Kd [3]: 7.79 nM
IC50 [4]: 12.9 nM
